# From patent US20160289698A1 (TRUSTEES OF DARTMOUTH COLLEGE, published 2016)
# T1: ARR12 (133-596) (Arabidopsis, UniProt P62598 133-596)
# T1 construct: range 133-596; Fused to a YFP fragment for BiFC; also called C-terminal domain of ARR12
# T1 sequence (looked up): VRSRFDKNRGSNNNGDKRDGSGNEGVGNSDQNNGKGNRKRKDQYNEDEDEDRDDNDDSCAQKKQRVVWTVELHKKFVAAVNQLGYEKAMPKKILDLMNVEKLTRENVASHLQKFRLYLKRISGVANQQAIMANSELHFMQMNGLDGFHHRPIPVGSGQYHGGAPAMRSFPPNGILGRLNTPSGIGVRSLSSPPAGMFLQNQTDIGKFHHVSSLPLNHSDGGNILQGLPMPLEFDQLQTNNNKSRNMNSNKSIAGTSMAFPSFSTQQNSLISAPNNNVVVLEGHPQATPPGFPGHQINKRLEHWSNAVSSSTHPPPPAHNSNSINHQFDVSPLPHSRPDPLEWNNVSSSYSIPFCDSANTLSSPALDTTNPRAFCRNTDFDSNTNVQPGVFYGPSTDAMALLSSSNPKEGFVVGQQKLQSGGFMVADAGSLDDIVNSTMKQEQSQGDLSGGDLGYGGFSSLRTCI
# T2: ARR12 (Arabidopsis, UniProt P62598 1-596)
# T2 construct: YFP^N or YFP^C fusion of the full-length cDNA in BiFC; also called AtARR12; type-B response regulator AtARR12
# T2 sequence (looked up): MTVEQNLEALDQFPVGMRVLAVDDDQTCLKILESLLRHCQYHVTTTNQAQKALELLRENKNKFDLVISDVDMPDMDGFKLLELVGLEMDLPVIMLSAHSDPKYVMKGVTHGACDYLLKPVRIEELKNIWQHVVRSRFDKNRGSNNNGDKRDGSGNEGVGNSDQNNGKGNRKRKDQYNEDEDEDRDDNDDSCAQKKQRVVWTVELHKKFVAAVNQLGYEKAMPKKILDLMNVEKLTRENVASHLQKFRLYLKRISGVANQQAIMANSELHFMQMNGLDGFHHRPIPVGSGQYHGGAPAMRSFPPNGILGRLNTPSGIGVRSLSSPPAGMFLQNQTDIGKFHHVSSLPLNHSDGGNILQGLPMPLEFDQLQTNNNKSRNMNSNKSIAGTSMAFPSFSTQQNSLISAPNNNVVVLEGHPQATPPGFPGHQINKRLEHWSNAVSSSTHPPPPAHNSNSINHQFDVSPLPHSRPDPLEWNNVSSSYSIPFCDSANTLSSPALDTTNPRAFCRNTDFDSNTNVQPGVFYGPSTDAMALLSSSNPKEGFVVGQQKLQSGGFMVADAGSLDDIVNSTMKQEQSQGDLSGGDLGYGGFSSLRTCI
# T3: ARR10 (Arabidopsis, UniProt O49397 1-552, limits assumed)
# T3 construct: also called type-B response regulator ARR10
# T3 sequence (looked up): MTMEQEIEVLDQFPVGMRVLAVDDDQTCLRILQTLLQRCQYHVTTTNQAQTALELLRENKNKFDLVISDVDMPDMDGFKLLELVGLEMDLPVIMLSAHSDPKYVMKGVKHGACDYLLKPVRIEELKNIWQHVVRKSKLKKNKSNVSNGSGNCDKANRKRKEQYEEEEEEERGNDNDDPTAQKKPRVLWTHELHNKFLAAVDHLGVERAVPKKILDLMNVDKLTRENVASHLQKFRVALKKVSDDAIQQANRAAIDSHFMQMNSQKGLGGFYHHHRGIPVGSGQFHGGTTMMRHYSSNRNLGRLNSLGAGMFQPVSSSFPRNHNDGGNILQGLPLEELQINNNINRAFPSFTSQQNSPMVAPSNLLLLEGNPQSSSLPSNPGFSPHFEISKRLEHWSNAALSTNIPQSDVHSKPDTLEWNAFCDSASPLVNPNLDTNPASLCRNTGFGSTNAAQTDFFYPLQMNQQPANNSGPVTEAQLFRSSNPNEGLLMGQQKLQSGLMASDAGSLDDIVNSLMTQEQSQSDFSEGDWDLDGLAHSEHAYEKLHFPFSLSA
# What was measured:
# ARR12 (133-596) = molecular target: T1, ARR12 (133-596); test: BiFC with ARR fragments
# ARR12 = molecular target: T2, ARR12; test: yeast two-hybrid (LexA-KMD bait, B42-ARR prey, X-gal)
# Method in brief: (§1)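 LexA DNA-binding-domain KMD bait fusions (pGilda) and B42 activation-domain type-B ARR prey fusions (pJG4-5) were co-transformed into yeast EGY48 carrying the lacZ reporter plasmid pSH18-34. Interaction was scored by colour on X-gal medium.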
# ARR10 = molecular target: T3, ARR10; test: as above
# Method in brief: as §1
binding result (ARR12 (133-596)),binding result (ARR12),binding result (ARR10),Binder
binds,binds,binds,"KISS ME DEADLY 1 (KMD1) (other, Arabidopsis, UniProt Q9M8L2 1-354, looked up, Full-length protein; also called At1g80440) MELIPNLPDDVARECLLRSSYQQFPVIASVCRAWNREVSLSQFLHQRKASRHSQELLILSQARVDPAGSGKIIATPEYRISVLESGSGLWTELPPIPGQTKGLPLFCRLVSVGSDLIVLGGLDPITWQAHDSVFVFSFLTSKWRVGATMPGVRRSFFGCASDSDRTVLVAGGHNEEKCALTSAMVYDVSEDKWTFLPDMARERDECKAVFHAGRFHVIGGYATEEQGQFSKTAESFDVSTWEWGPLTEDFLDDTGDTVSPPTCVAGGDLYACWGGDVMMFLNDKWQKVGQIPADVYNVTYVAVRPGMLIVIGNGKALAGYGEATVGYICDLSSSRWVKLETHGGHVQAGCFLEV"
,binds,binds,"KISS ME DEADLY 2 (KMD2) (other, Arabidopsis, UniProt Q9LMR5 1-359, looked up, Full-length protein; LexA fusion in yeast two-hybrid, YFP^N or YFP^C fusion in BiFC; also called At1g15670) MELIPDLPETVAYECLLRSSYKQFPLMASVCKLWQREISLSDFFRHRKASGHSQELVVLSQARVDPVKELVSGNKTIPTPVYRISVLELGTGLRSELPPVPGHSNGLPLFCRLVSVGSDLVVLCGLDPVTWRTSDSVFVFSFLTSTWRVGKSMPGGPRSFFACASDSQRNVFVAGGHDEDKNAMMSALVYDVAEDRWAFLPDMGRERDECTAIFHAGKFHVIGGYSTEEQGQFSKTAESFDVTTWRWSPQGEEFLSSEMTMWPPICAAGENGDLYACCRRDLMMMKDDTWYKVGNLPADVCNVSYVAIRRSGNLVVIGSARYGEPSVGYNWDMSNSRWLKLETHDKYEGHVQAGCFLEI"
